Changes are numbered by the printed parent chain.
T1: TNF-beta (human, UniProt P01374 35-205)
T1 construct: also called TNFβ; Tumour Necrosis Factor-beta
T1 sequence (looked up): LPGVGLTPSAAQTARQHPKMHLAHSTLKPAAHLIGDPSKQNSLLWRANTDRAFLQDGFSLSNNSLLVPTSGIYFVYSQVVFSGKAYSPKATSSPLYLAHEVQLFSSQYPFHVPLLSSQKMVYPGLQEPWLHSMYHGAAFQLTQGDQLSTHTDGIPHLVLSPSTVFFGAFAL

T2: Fas ligand (human, UniProt P48023 134-281, limits assumed)
T2 sequence (looked up): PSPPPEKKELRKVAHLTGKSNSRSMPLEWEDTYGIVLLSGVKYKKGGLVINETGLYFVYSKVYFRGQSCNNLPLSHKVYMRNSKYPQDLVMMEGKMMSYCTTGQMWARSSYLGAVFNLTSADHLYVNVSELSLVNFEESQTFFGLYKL

B1: I031F02 (scFv)
scFv: QVQLVQSGAEVRKPGSSVKVSCKASGGSFSSHVFSWVRQAPGQGLEWVGGITPKFATPNYAQKFQHRVTITADELTRTVFMDLSGLRSEDTAVYYCARGYDSSAFRAFDIWGQGTMVTVSSGGGGSGGGGSGGGGSAQSVLTQPPSVSGAPGQRVTISCTGSSSNIGAGYDVQWYQQLPGTAPKLLIHGNNNRPSGVPDRFSGSKSGTSASLAITGLQDEDEADYYCQSYDSSLSFSGYVFGTGTKVTVLG
B2: I028A06 (scFv)
scFv: QVQLVESGGGLIQPGGSLRLSCAASGFSFGSYAMSWIRQAPGKGLEWVSTSTGRGGSTYYADSVKGRFTISRDNAKNSLYLQMNSLRAEDAAVYYCARGGDYDILTGLYYYGMDVWGKGTMVTVSSGGGGSGGGGSGGGGSSYVLTQPPSVSGTPGQRVTISCSGGRSNIGSNTVKWYQQLPGTAPKLLIYGNDQRPSGVPDRFSGSKSGTSASLAITGVQAEDEADYYCQSYDSSLRGSRVFGTGTKVTVLG
B3: I031G10 (scFv)
scFv: QVQLVQSGAEVKKPGSSVKVSCRVSGGSFTDDSINWLRQAPGQGLEWVGGTIPLANRANYAQKFRDRVTITADELTATVFLELTSLRSDDTALYYCARSSPPKWYDALTGDSSYHSAMDVWGRGTLVTVSSGGGGSGGGGSGGGGSAQSVVTQPPSVSAAPGQKVTISCSGSTSNIGRNYVSWYQQLPGTATKLLIYDNNKRPSGIPDRFSGSKSGTSATLGITGLQTGDEADYYCGTWDSSLRIYVFGTGTKVTVLG
B4: I012A06 (scFv)
scFv: QVQLQESGPGVVKPSQTLSLTCTVSGVSISSDSYYWSWIRQPAGKGPEWIGRIYPTGSTNYNPSLKSRVTISVDTSKNQFSLQLTSVTAADTAVYYCARGRWDYDLLTGEHLGYYFDYWGRGTLVTVSSGGGGSGGGGSGGGGSALSSELTQDPAVSVALGQTVRITCQGDTLRNYYASWYQQKPGQAPVLVIHSRNNRPSGIPDRFSGSSSGTTASLTITGSQAEDEADYYCNSRDSSGNVIFGGGTKLTVLG
B5: I031G08 (scFv)
scFv: QVQLVQSGAEVKKPGSSVKVSCRASGGSFIDDSINWLRQAPGQGLEWVGGTIPLANRANYAQKFRDRATITADELTATVFLELTSLRSDDTALYYCARSSPPKWYDALTGHSSYHSAMDVWGRGTLVTVSSGGGGSGGGGSGGGGSAQSVLTQPPSASGTPGQRVTISCSGTNSNIGGNTVNWYQQLPGTAPRLLIYSNNQRPSGVPDRFSGSKSGTSASLAISGLQSEDEADYYCAARDDRLNAHVVFGGGTKVTVLG
B6: I050A12 (scFv)
scFv: EVQLVQSGAEVKKPGSSVKVSCKASGDTFSHYAINWVRQAPGQGLEWMGGIIPTFNAVKYAQKFQGRATITADGSTSTAYMELNSLRSEDTAVYYCATAPYDLLTHYFHYFDYWGQGTMVTVSSGGGGSGGGGSGGGGSALSSELTQDPAVSVTLGQTVRITCQGDSLRSYYPSWYQQKPGQAPVLVIYPKNIRPSGIPDRFSGSSSGNTASLTITGAQAEDEADYYCNSRASSGNHYVFATGTKLTVLG
B7: I031C03 (scFv)
scFv: QMQLVQSGAEVRKPGSSVKVSCKASGGSFSSHVFSWVRQAPGQGLEWVGGITPKFATPNYAQKFQHRVTITADELTRTVFMDLSGLRSEDTAVYYCARGYDSSAFRAFDIWGQGTLVTVSSGGGGSGGGGSGGGGSAQSVLTQPPSVSAAPGQKVTISCSGSSSNIGNNYVSWYQQFPGTAPKLLIYDNNNRPSGVPDRFSGSKSGTSATLGITGLQTGDEADYYCGTWDRSLSVVVFGGGTKVTVLG
B8: I050B11 (scFv)
scFv: QVQLVQSGVEVKKPGASVKVSCKASGYTFSNHGISWVRQAPGQGLEWVGWISGHDDSTKYAQKFQGRVTMTADTSTSTAYIELRSLKSDDTAVYYCARPFYDTLTSYVFQYFDHWGQGTMVTVSSGGGGSGGGGSGGGGSALETTLTQSPDTLSLSPGERATLSCRASQSVTRGWVAWYQQKPGQAPRLLMYGTSRRATGVPDRFSGSESGTDFTLTISRLEPEDFAVYYCQQYATSPRTFGQGTRLEIKR
B9: I031F09 (scFv)
scFv: QVQLVQSGAEVKKPGASVKVSCTVSGDSFSRHGISWVRQAPGQGLEWMGWISVYNGDTKYAQKVQGRVTMTTDTSTNTVYMELRRLRSDDTAVYYCARDEGRDLLTGYYWPNFFDSWGRGTLVTVSSGGGGSGGGGSGGGGSALSYVLTQPPSASGTPGQRVTISCSGSRPNIGGNTVNWYQQLPGAAPKLLIYSNSQRPSGVPDRFSGSKYGTSASLAISGLQSDDEADYYCAAWDDSLTGPVFGGGTKLTVLG
B10: I031G11 (scFv)
scFv: B9 scFv with A154V, R161K
B11: I031C07 (scFv)
scFv: EVQLVQSGAEVKKPGSSVKVSCRASGGSFIDGSINWLRQAPGQGLEWVGGTIPLANRANYAQKFRDRVTITADELTAIVFLELTSLRSDDTALYYCARSSPPRWYDALTGDSSYHSAMDVWGQGTMVTVSSGGGGSGGGGSGGGGSAQSALTQPPSASGSPGQSVTISCSGTSSDIGDSNSVSWYQQHPGKAPKLLIYEVTKRPSGVPDRFAGSRSDNTASLTVSGLQTEDEADYYCSSSAARNHLVFGGGTKVTVLG

Target: T3, B Lymphocyte Stimulator, soluble form (human) (human, UniProt Q9Y275 134-285, biotinylated with NHS-biotin where used as biotinylated B Lymphocyte Stimulator)
T3 construct: Coated on plastic, captured on streptavidin plates, amine-coupled to a CM5 chip or free in solution, depending on the assay; also called BLyS; immobilized B Lymphocyte Stimulator
Experiment: phage competition ELISA

| Binder | binding result |
| --- | --- |
| B1 | binds |
| B2 | binds |
| B3 | binds |
| B4 | binds |
| B5 | binds |
| B6 | binds |
| B7 | binds |
| B8 | binds |
| B9 | binds |
| B10 | binds |
| B11 | binds |

Target: T1, TNF-beta
Experiment: phage ELISA

| Binder | binding result |
| --- | --- |
| B1 | no binding |
| B2 | no binding |
| B3 | no binding |
| B4 | no binding |
| B5 | no binding |
| B6 | no binding |
| B7 | no binding |
| B8 | no binding |
| B9 | no binding |
| B10 | no binding |
| B11 | no binding |

Target: T2, Fas ligand
Experiment: phage ELISA

| Binder | binding result |
| --- | --- |
| B1 | no binding |
| B2 | no binding |
| B3 | no binding |
| B4 | no binding |
| B5 | no binding |
| B6 | no binding |
| B7 | no binding |
| B8 | no binding |
| B9 | no binding |
| B10 | no binding |
| B11 | no binding |

Target: T4, TRAIL (human, UniProt P50591 114-281)
T4 construct: also called TNF-related apoptosis inducing ligand
T4 sequence (P50591 114-281 limits assumed): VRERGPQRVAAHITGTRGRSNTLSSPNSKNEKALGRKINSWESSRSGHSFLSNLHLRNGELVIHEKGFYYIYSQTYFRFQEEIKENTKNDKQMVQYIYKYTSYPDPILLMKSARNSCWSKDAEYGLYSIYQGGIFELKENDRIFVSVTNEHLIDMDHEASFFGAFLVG
Experiment: phage ELISA

| Binder | binding result |
| --- | --- |
| B1 | no binding |
| B2 | no binding |
| B3 | no binding |
| B4 | no binding |
| B5 | no binding |
| B6 | no binding |
| B7 | no binding |
| B8 | no binding |
| B9 | no binding |
| B10 | no binding |
| B11 | no binding |

Target: T5, TNF-alpha (human, UniProt P01375 77-233)
T5 construct: also called TNFα; TNF-α
T5 sequence (P01375 77-233 limits assumed): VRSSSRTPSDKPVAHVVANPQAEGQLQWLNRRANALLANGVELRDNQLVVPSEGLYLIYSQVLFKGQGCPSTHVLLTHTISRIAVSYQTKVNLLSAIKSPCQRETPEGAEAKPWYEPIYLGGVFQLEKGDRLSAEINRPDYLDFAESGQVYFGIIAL
Experiment: phage ELISA

| Binder | binding result |
| --- | --- |
| B1 | no binding |
| B2 | no binding |
| B3 | no binding |
| B4 | no binding |
| B5 | no binding |
| B6 | no binding |
| B7 | no binding |
| B8 | no binding |
| B9 | no binding |
| B10 | no binding |
| B11 | no binding |

Target: T6, membrane-bound B Lymphocyte Stimulator on U937 plasma membrane preparations (human, UniProt Q9Y275 1-285)
T6 construct: Natural protein in plasma membrane fractions of the human cell line U937 coated on ELISA plates; also called U937 plasma membranes; U937 membranes
Experiment: phage ELISA

| Binder | binding result |
| --- | --- |
| B1 | binds |
| B2 | binds |
| B3 | binds |
| B4 | binds |
| B5 | binds |
| B6 | binds |
| B7 | binds |
| B8 | binds |
| B9 | binds |
| B10 | binds |
| B11 | binds |

— US20110293610A1 (published 2011)
